The values below come from patent US20240327530A1 (ICHNOS SCIENCES, published 2024).

As usually defined, the Kd is the concentration at which binding is half-saturated. Higher therefore signals weaker binding.

Assay [1] addresses T1, Mouse IL-1RAP, membrane-bound on NIH-3T3 cells (mouse, UniProt Q61730 21-570).
T1 construct: Endogenous protein on cells
T1 sequence (looked up): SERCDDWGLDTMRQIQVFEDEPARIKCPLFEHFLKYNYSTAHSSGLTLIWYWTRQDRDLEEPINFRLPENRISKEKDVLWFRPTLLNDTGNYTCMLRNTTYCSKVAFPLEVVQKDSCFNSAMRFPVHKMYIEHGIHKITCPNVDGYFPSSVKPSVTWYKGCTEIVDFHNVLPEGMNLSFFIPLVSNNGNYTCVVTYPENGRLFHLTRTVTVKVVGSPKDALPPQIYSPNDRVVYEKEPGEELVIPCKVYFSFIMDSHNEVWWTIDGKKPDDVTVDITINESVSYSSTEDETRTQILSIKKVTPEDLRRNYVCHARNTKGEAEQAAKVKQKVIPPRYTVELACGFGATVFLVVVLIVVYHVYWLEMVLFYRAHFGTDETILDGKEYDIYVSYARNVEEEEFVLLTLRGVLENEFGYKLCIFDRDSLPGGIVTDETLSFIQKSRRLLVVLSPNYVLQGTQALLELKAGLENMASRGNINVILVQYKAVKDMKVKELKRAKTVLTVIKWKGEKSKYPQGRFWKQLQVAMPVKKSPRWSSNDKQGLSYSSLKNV
The assay can be described thus: flow cytometry on NIH-3T3 cells, nonlinear sigmoidal regression. The protocol:
In brief, cells were harvested, counted, and plated at 50′000 cells/well in a 96-well round-bottom plate. The plate was centrifuged at 350 g for 3 minutes and the cells were resuspended in […] of FACS® buffer (PBS (1×)+2.5% FCS+2 mM EDTA+0.05% NaN₃) containing various concentrations (ranging from 20 to 0.0001 μg/ml) of either anti-mouse IL-1RAP_candidate_1 or Isotype control_2 antibodies. Stained cells were incubated for 30 minutes at 4° C., washed twice with FACS® buffer at 350 g for 3 min and resuspended in 100 μl of a monoclonal anti-mouse IgG PE-Cyanine7 secondary antibody (Biolegend, 407114) diluted 1/200 in FACS® buffer. Cells were then washed twice, and resuspended in 200 μl of FACS® buffer containing SYTOX® Green dead cell stain (THERMO FISHER […]®, S34860) and samples were acquired on a CYTOFLEX® instruments (Beckman Coulter). The cells were gated based on size on FSC vs SSC and analysed for PE-Cyanine7-geometric mean (geomean) fluorescence intensity using FLOWJO® software. Finally, relative geomean fluorescence intensity was calculated by subtracting fluorescence of anti-mouse IL-1RAP_candidate_1 per fluorescence of Isotype control_2. As depicted in FIG. 11, anti-mouse IL-1RAP_candidate_1 antibody recognizes membrane-bound IL-1RAP expressed on NIH-3T3 cell line. […] Each data point is a measurement for a given cell line. […]
A general note: In flow cytometry, cells or beads pass a laser one at a time.

The target in assay [2] is T2, Cynomolgus IL-1RAP on normal cynomolgus dermal fibroblasts (cynomolgus monkey, UniProt P59822 21-570 (rhesus entry)).
T2 construct: Endogenous protein on cells; also called Cyno IL-1RAP
T2 sequence: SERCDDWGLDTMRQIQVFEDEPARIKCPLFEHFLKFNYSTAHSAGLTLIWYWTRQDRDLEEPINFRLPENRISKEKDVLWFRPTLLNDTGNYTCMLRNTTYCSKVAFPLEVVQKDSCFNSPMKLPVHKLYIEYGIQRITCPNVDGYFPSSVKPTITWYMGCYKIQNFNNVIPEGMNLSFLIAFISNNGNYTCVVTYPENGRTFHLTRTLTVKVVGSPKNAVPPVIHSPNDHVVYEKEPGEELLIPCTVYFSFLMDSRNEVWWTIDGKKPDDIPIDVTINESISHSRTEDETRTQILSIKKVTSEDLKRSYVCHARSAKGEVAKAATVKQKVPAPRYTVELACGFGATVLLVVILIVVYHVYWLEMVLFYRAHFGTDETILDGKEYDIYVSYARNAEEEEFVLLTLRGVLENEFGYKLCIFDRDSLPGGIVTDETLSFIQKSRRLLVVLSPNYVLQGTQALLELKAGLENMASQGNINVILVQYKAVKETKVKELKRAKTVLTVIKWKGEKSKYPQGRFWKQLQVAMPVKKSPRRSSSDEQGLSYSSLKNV
Nature of the assay: flow cytometry on normal cynomolgus fibroblasts, nonlinear sigmoidal regression. As for the experimental part: Bound antibodies were detected with a monoclonal anti-human IgG PE-Cyanine7 secondary antibody. The graphs show the nonlinear sigmoidal regression binding curves (Relative Geometric Mean Fluorescence Intensity) for each cell lines. Each data point is a measurement for a given cell line. Multiple independent experiments were performed across several donors (HaCaT and HaCaT IL-1RAP KO: 4 and 3 independent experiments; Human Dermal Fibroblasts: 2 independent experiments—total of 5 donors; Human Neutrophil: 2 experiments—total of 6 donors; Cyno Dermal Fibroblasts: 2 independent experiment—total of 4 donors).
In brief, cells were harvested, counted, and plated at 50,000 cells/well in a 96-well round-bottom plate. The plate was centrifuged at 350 g for 3 minutes and the cells were resuspended in 50 μl of FACS® buffer (PBS (1×)+2.5% FCS+2 mM EDTA+0.05% NaN₃) containing various concentrations (ranging from 50 to 0.00003 μg/ml) of either anti-human IL-1RAP_candidate_1 or Isotype control_5 antibodies. […] The cells were gated based on size on FSC vs SSC and analyzed for PE-Cyanine7-geometric mean (geomean) fluorescence intensity using FLOWJO® software. Finally, relative geomean fluorescence intensity was calculated by subtracting fluorescence of anti-human IL-1RAP_candidate_1 per fluorescence of Isotype control_5. […]

B1: Anti-IL-1RAP-C3-A3 mmIgG2a LALA (antibody, V domains shown)
VH: EVQLLESGGGLVQPGGSLRLSCAASGFIFSHYGMSWVRQAPGKGLEWVSAISYDGEGTLYADSVKGRFTISRDNSKNTLYLQMNSLRAEDTAVYYCARFRYYTAFDYWGQGTLVTVSS
VL: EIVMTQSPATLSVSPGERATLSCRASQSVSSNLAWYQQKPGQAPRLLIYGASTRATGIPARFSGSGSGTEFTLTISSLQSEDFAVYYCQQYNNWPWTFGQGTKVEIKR
notes: also called anti-IL-1RAP-C3-A3 mouse IgG2a LALA
The molecule B1 yielded a Kd in assay [1] of 1.15 nM.

B2: Anti-IL-1RAP-C8-RecC-ES-IgG1LALA (antibody, V domains shown)
VH: QVQLVQSGAEVKKPGSSVKVSCKASGSPAEPYAIQWVRQAPGQGLEWMGYIIPSLGGYDYAQKFQGRVTITADESTSTAYMELSSLRSEDTAVYYCARGQTLYESGRQFDIWGQGTLVTVSS
VL: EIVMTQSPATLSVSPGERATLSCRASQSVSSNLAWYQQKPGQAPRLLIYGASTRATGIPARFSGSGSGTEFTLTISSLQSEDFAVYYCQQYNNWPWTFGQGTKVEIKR
notes: also called ISB 880-C8-recC-ES
B2 yielded a dissociation constant Kd in assay [2] of 1.55 nM.
